Reference: patent publication US20120277286A1, “COMPOSITIONS AND METHODS FOR THE TREATMENT OR PREVENTION OF MITOCHONDRIAL DISEASES” (The Government of the USA, as represented by the Secretary, …, priority 2009, published 2012)

B1: YFP-Parkin: YFP-tagged Parkin E3 ligase expressed from a transfected vector (protein, UniProt O60260 1-465, looked up)
E3 ubiquitin-protein ligase …: MIVFVRFNSSHGFPVEVDSDTSIFQLKEVVAKRQGVPADQLRVIFAGKELRNDWTVQNCDLDQQSIVHIVQRPWRKGQEMNATGGDDPRNAAGGCEREPQSLTRVDLSSSVLPGDSVGLAVILHTDSRKDSPPAGSPAGRSIYNSFYVYCKGPCQRVQPGKLRVQCSTCRQATLTLTQGPSCWDDVLIPNRMSGECQSPHCPGTSAEFFFKCGAHPTSDKETSVALHLIATNSRNITCITCTDVRSPVLVFQCNSRHVICLDCFHLYCVTRLNDRQFVHDPQLGYSLPCVAGCPNSLIKELHHFRILGEEQYNRYQQYGAEECVLQMGGVLCPRPGCGAGLLPEPDQRKVTCEGGNGLGCGFAFCRECKEAYHEGECSAVFEASGTTTQAYRVDERAAEQARWEAASKETIKKTTKPCPRCHVPVEKNGGCMHMKCPQPQCRLEWCWNCGCEWNRVCMGDHWFDV
modifications: YFP fusion
notes: YFP-tagged Parkin E3 ligase expressed from a transfected vector
B2: PINK1: exogenously expressed wild type PINK1 (V5 or myc tagged) (protein, UniProt Q9BXM7 78-581, looked up)
Serine/threonine-protein …: AARLQRQFVVRAWGCAGPCGRAVFLAFGLGLGLIEEKQAESRRAVSACQEIQAIFTQKSKPGPDPLDTRRLQGFRLEEYLIGQSIGKGCSAAVYEATMPTLPQNLEVTKSTGLLPGRGPGTSAPGEGQERAPGAPAFPLAIKMMWNISAGSSSEAILNTMSQELVPASRVALAGEYGAVTYRKSKRGPKQLAPHPNIIRVLRAFTSSVPLLPGALVDYPDVLPSRLHPEGLGHGRTLFLVMKNYPCTLRQYLCVNTPSPRLAAMMLLQLLEGVDHLVQQGIAHRDLKSDNILVELDPDGCPWLVIADFGCCLADESIGLQLPFSSWYVDRGGNGCLMAPEVSTARPGPRAVIDYSKADAWAVGAIAYEIFGLVNPFYGQGKAHLESRSYQEAQLPALPESVPPDVRQLVRALLQREASKRPSARVAANVLHLSLWGEHILALKNLKLDKMVGWLLQQSAATLLANRLTEKCCVETKMKMLFLANLECETLCQAALLLCSWRAAL
modifications: V5 or myc tag

Legend:
[1] = tested on: M17 human neuroblastoma cells; experiment: YFP-Parkin recruitment to mitochondria in M17 cells; format: cell-based; conditions: M17 cells stably transduced with control shRNA (CCCP line) or PINK1 shRNA, 10 μM CCCP, 3 hours
Source text: (§1) HeLa YFP-Parkin, PINK1+/+ SV40 transformed MEFs cells, PINK1−/− SV40 transformed MEF, M17 neuroblastoma control shRNA, M17 neuroblastoma PINK1, and Mfn1/2−/− MEF cell lines have been described previously (Narendra (2008) J Cell Biol 183: 795-803). PINK1+/+ and PINK1−/− primary MEFs were isolated from embryos using a standard protocol (Gautier (2008) Proc Natl Acad Sci USA 105: 11364-11369). Parkin+/+ and Parkin−/− transformed MEFs were created by isolation of primary cells from embryos of B6.129S4-Park2tm1Shn/J mice (Jackson Labs), using a standard protocol (Gautier (2008) Proc Natl Acad Sci USA 105: 11364-11369), followed by retroviral transduction of SV40 (Applied Biological Materials, Inc.). YFP-Parkin, YFPParkin mutants, mCherry-Parkin, PINK1-YFP, PINK1 KD-YFP, PINK1 Δ1-110-YFP, and Opa3-PINK1 Δ1-110-YFP are in C1 or N1 Clontech vectors. PINK1WT-V5, PINK1 KD-V5, and PINK1 Δ1-156-V5 are in pDest40 vector (Invitrogen). PINK1 patient mutations are in pLenti-V5 vector (Invitrogen). PINK1-myc is in a pCMBTNT vector (Promega).
(§2) Confocal microscopy of fixed samples, scoring of Parkin recruitment and Parkininduced mitophagy, and live cell imaging were performed as described previously (Narendra (2008) J Cell Biol 183: 795-803). Experiments in Mfn1/2 null cells were performed as described previously with minor modifications. […]

[2] = tested on: PINK1+/+ or PINK1−/− MEFs; experiment: Parkin-induced mitophagy in MEFs; format: cell-based, mouse; conditions: primary MEFs expressing YFP-Parkin, 20 μM CCCP, 24 hours; PINK1+/+ (CCCP line) or PINK−/− reconstituted with PINK1
Source text: as §1, §2

[3] = tested on: PINK1+/+ or PINK1−/− MEFs; experiment: YFP-Parkin recruitment to mitochondria in MEFs; format: cell-based, mouse; conditions: for Parkin recruited to mitochondria, % of cells: CCCP
Source text: as §1
(§3) Confocal microscopy of fixed samples, scoring of Parkin recruitment and Parkininduced mitophagy, and live cell imaging were performed as described previously (Narendra (2008) J Cell Biol 183: 795-803). Experiments in Mfn1/2 null cells were performed as described previously with minor modifications.
HeLa YFP-Parkin, E18 Rat cortical neurons, PINK1^+/+ SV40 transformed MEFs cells, PINK1^−/− SV40 transformed MEF, M17 neuroblastoma control shRNA, M17 neuroblastoma PINK1, Mfn1/2^−/− MEF, and Parl^−/− MEF cell lines have been described previously (Narendra (2008) J Cell Biol 183: 795-803). PINK1^+/+ and PINK1^−/− primary MEFs were isolated from embryos using a standard protocol (Gautier (2008) Proc Natl Acad Sci USA 105: 11364-11369). Parkin^+/+ and Parkin^−/− transformed MEFs were created by isolation of primary cells from embryos of B6.129S4-Park2^tm1Shn/J mice (Jackson Labs), using a standard protocol (Gautier (2008) Proc Natl Acad Sci USA 105: 11364-11369), followed by retroviral transduction of SV40 (Applied Biological Materials, Inc.). YFP-Parkin, YFP-Parkin mutants, mCherry-Parkin, PINK1-YFP, PINK1 KD-YFP, PINK1 Δ1-110-YFP, and Opa3-PINK1 Δ1-110-YFP are in C1 or N1 Clontech vectors. PINK1WT-V5, PINK1 KD-V5, and PINK1 Δ1-156-V5 are in pDest40 vector (Invitrogen). PINK1 patient mutations are in the pLenti-V5 vector (Invitrogen). PINK1-myc is in a pCMBTNT vector (Promega). The PARL shRNA construct targeting (5′ […] 3′) is in the pSuper-GFP vector. To make FRB-PINK1 (111-581)-YFP and Tom20 (1-33)-FKBP, PCR fragments containing PINK1 (111-581)-YFP and Tom20 (1-33) were cloned into the BamHI site of the pC4-RHE vector and the EcoRI and XbaI sites of pC4M-F2E vectors, respectively (ARIAD Pharmaceuticals). The rapamycin analogue AP21967 was obtained from ARIAD Pharmaceuticals. The PARL shRNA construct targeting (5′ […] 3′) is in the pSuper-GFP vector (OligoEngine).
as §3, with “Parkin-induced” for “Parkininduced”, “imageing” for “imaging”, “modifications described in the supplemental methods (Narendra (2008) J Cell Biol 183: 795-803).” for “modifications.”

HeLa cells = experiment: Transmission electron microscopy of mitochondria and lysosomes; format: cell-based; conditions: 10 μM CCCP 48 hours
Method: HeLa cells transfected with YFP-Parkin for 18 hours were sorted for YFP using FACS. After sorting, 99.7% of cells contained a detectable YFP signal. After overnight culture, cells were treated with 10 μM CCCP for 48 h, fixed with 4% glutaraldehyde in 0.1 N sodium-cacodylate at room temperature for 1 hour, and processed for electron microscopy using a standard protocol. 22 cells expressing Parkin and 22 untransfected cells were randomly selected and imaged at 8,000× magnification by transmission electron microscope (200CX; JEOL Ltd.) and a digital camera system (XR-100; Advanced Microscopy Techniques, Corp.). The area of cytoplasm in each cell was calculated using National Institutes of Health ImageJ.

Row | Molecule | cells with mitochondrial YFP-Parkin [1] [%] | cells with no detectable mitochondria [2] [%] | YFP-Parkin recruited to mitochondria, % of cells ([3]; PINK1+/+ primary MEFs, 20 μM CCCP, 3 hours) [%] | Parkin recruited to mitochondria, % of cells ([3]; SV40 transformed PINK1+/+ MEFs) [%] | cells with either few or no detectable mitochondrial structures (HeLa cells; electron microscopy) [%] | lysosomes per cell area (HeLa cells; n=22 cells) [lysosomes/μm 2 cell area] | mitochondria per area of cytoplasm (HeLa cells; n=22 cells) | reconstitution of YFP-Parkin recruitment ([3]; PINK1−/− primary MEFs co-transfected with construct, 20 μM CCCP, 3 hours) | YFP-Parkin recruited to mitochondria, % of cells ([3]; PINK1−/− primary MEFs expressing the PINK1 construct, 20 μM CCCP, 3 hours) [%] | Parkin recruited to mitochondria, % of cells ([3]; SV40 transformed PINK1−/− MEFs with exogenous construct) [%]
1 | N#CC(C#N)=NNc1cccc(Cl)c1 [CCCP, carbonyl cyanide m-chlorophenylhydrazone] | 67.3±3.1 | 66.1±16.8 | 43.3±8.1 | 60.7±7.7 |  |  |  |  |  | 
2 | B1 |  |  |  |  | 90 | 0.38±0.23 | 0.074±0.21 mitochondria/μm 2 of cytoplasm |  |  | 
3 | B2 |  | 65.5±5.0 |  |  |  |  |  | reconstituted | 78.6±3.9 | 72.8±7.7
